Data on 43 variants can be found in the Human Domainome abundance scans (Beltran et al. 2025).

± gives the uncertainty stated by the source.

First the molecules themselves.
B1: Dynamin-binding protein, residues 242 to 304; numbered along this chain, Q6XZF7 (parent)
chain: EEPGTYGVALYRFQALEPNELDFEVGDKIRILATLEDGWLEGSLKGRTGIFPYRFVKLCPDTR

The variants in the data set derive from B1. The data set can be described thus: abundance fitness (aPCA) (normalised: wild type 0, dead -1); higher = more abundant; growth selection in yeast, the domain comes from the species named. The note with it: Homo sapiens.
With EEPGTYGVALYRFQALEPNELDFEVGDKIRILATLEDGWLEGSLKGRTGIFPYRQVKLCPDTR, the abundance fitness was -0.774 ± 0.12.
For the variant EEPGTYGVALYRFQALEPNELDFEVGDKIRILATLEDGWLEGSLKGRTGIFPYRWVKLCPDTR, the abundance fitness is -0.374 ± 0.07.
Under EEPGTYGVALYRFQALEPNELDFEVGDKIRILATLEDGWLEVSLKGRTGIFPYRFVKLCPDTR stands -0.575 ± 0.08.
Under EEPGTYGVALYRFQALEPNELDFEVGDKIRILATLEDGWLEWSLKGRTGIFPYRFVKLCPDTR stands -0.506 ± 0.19; under EEPGTYGVALYRFQALEPNELDFEVGDKIRILATLEDGWLECSLKGRTGIFPYRFVKLCPDTR, -0.859 ± 0.12; under EEPGTYGVALYRFQALEPNELDFEVGDKIRILATLEDGWLETSLKGRTGIFPYRFVKLCPDTR, -0.997 ± 0.21.
Turning to EEPGTYGVALYRFQALEPNELDFEVGDKIRILAALEDGWLEGSLKGRTGIFPYRFVKLCPDTR, the abundance fitness was -0.33 ± 0.075.
For the variant EEPGTYGVALYRFQALEPNELDFEVGDKIRILATLEDSWLEGSLKGRTGIFPYRFVKLCPDTR, the abundance fitness was -0.545 ± 0.07.
Under EEPGTYGVALYNFQALEPNELDFEVGDKIRILATLEDGWLEGSLKGRTGIFPYRFVKLCPDTR stands 0.009 ± 0.062; under EEPGTYGVALYEFQALEPNELDFEVGDKIRILATLEDGWLEGSLKGRTGIFPYRFVKLCPDTR, -0.469 ± 0.21.
As for EEPGTYGVALYIFQALEPNELDFEVGDKIRILATLEDGWLEGSLKGRTGIFPYRFVKLCPDTR, the figure is -0.737 ± 0.1; as for EEPGTYGVALYRFQALEPNELDFEVGDKIRILATLEDGWLEGSLKGRTGIFPRRFVKLCPDTR, 0.211 ± 0.062.
As for EEPGTYGVALYRFQALEPNELDFQVGDKIRILATLEDGWLEGSLKGRTGIFPYRFVKLCPDTR, the figure is -0.024 ± 0.15.
On to EEPGTYGVALYRFQALEPNELDFEVGDKIRILATLEDGWLEGSLKGRTGIFPYEFVKLCPDTR, for which the abundance fitness was -0.057 ± 0.13.
In the case of EEPGTYGVALYRFQALEPNELDFEVGDKIRILATLEDGWLEGSLKGRTGIFDYRFVKLCPDTR, the abundance fitness is -0.817 ± 0.12.
Under EEPGTYGVALYRFQALEPNELDFEVGDKIRILATLEDGWLEGSLKHRTGIFPYRFVKLCPDTR stands -0.73 ± 0.077.
As for EEPGTYGVALYRFQALEPNELDFEVGDKIRILATLEDGWLEGSLKPRTGIFPYRFVKLCPDTR, the figure is -0.611 ± 0.081; as for EEPGTYGVALYRFQALPPNELDFEVGDKIRILATLEDGWLEGSLKGRTGIFPYRFVKLCPDTR, -1.01 ± 0.32; as for EEPGTYGVALYRFQALAPNELDFEVGDKIRILATLEDGWLEGSLKGRTGIFPYRFVKLCPDTR, 0.029 ± 0.059.
As for EEPGTYGVALYRFQALEPNELDFEVGDKIRLLATLEDGWLEGSLKGRTGIFPYRFVKLCPDTR, the figure is -0.702 ± 0.097.
Consider EEPGTYGVALYRFQALEPNELDFEVGDKIRILATLNDGWLEGSLKGRTGIFPYRFVKLCPDTR, for which the abundance fitness was -0.156 ± 0.067.
As for EEPGTYGVALYRFQALEPNELDFEVGDKYRILATLEDGWLEGSLKGRTGIFPYRFVKLCPDTR, the figure is -0.808 ± 0.12.
With EEPGTYGVALYRFQALEPNELDFEVGDKDRILATLEDGWLEGSLKGRTGIFPYRFVKLCPDTR, the abundance fitness was -0.685 ± 0.1.
With EEPGLYGVALYRFQALEPNELDFEVGDKIRILATLEDGWLEGSLKGRTGIFPYRFVKLCPDTR, the abundance fitness was 0.052 ± 0.059.
Consider EEPGTYGVALYRFQALEPNELDFEVGDKIRILATLEDGWLEGSLKGRTGIYPYRFVKLCPDTR, for which the abundance fitness was -0.497 ± 0.066.
For EEPGTYGVALYRFQALEPNELDFEVGDKIRILATLEDGWLEGSLKGRTGICPYRFVKLCPDTR, the abundance fitness was -0.748 ± 0.092.
EEPPTYGVALYRFQALEPNELDFEVGDKIRILATLEDGWLEGSLKGRTGIFPYRFVKLCPDTR: the abundance fitness turned out to be 0.214 ± 0.11.
As to EEPGTYGVALYRFQALEPNELDFETGDKIRILATLEDGWLEGSLKGRTGIFPYRFVKLCPDTR, the abundance fitness was -0.412 ± 0.086.
Under EEPGTYGVALYRFQAIEPNELDFEVGDKIRILATLEDGWLEGSLKGRTGIFPYRFVKLCPDTR stands 0.03 ± 0.06; under EEPGTYGVALYRFQALEPNELDFEVGDKIRILATLEDGWLRGSLKGRTGIFPYRFVKLCPDTR, -0.019 ± 0.064; under EEPGTYGVALYRFQALEPNELDFEVGDKIRILATLEDGWLSGSLKGRTGIFPYRFVKLCPDTR, -0.116 ± 0.05.
As for EEPGTYGVALYRFQALEPNELDFEVGDKITILATLEDGWLEGSLKGRTGIFPYRFVKLCPDTR, the figure is -0.644 ± 0.12; as for EEPGTYGVALYRFQALEPNELDFEVGDKIYILATLEDGWLEGSLKGRTGIFPYRFVKLCPDTR, -0.398 ± 0.085; as for EEPGTYGVALYRFQALEPNELDFEVGDKIMILATLEDGWLEGSLKGRTGIFPYRFVKLCPDTR, -0.651 ± 0.23.
As for EEPGTYGVALYRFQALEPQELDFEVGDKIRILATLEDGWLEGSLKGRTGIFPYRFVKLCPDTR, the figure is -0.188 ± 0.23; as for EEPGTYGVALYRFQALEPRELDFEVGDKIRILATLEDGWLEGSLKGRTGIFPYRFVKLCPDTR, -0.167 ± 0.069.
On to EEPGTYGVALYRFQALEPLELDFEVGDKIRILATLEDGWLEGSLKGRTGIFPYRFVKLCPDTR, for which the abundance fitness is -0.52 ± 0.086.
As for EEPGTYGVALYRFQALEPNELDFEVGDKIRILATLEDGWLEGSLKGRTGIFPYRFVKLCPDIR, the figure is -0.034 ± 0.055; as for EEPGTYGVALYRFQALEPNELDFEVGDKIRILATLENGWLEGSLKGRTGIFPYRFVKLCPDTR, -0.116 ± 0.06.
As for EEPGTYGVAFYRFQALEPNELDFEVGDKIRILATLEDGWLEGSLKGRTGIFPYRFVKLCPDTR, the figure is -0.873 ± 0.12; as for EEPGTYGVAWYRFQALEPNELDFEVGDKIRILATLEDGWLEGSLKGRTGIFPYRFVKLCPDTR, -0.397 ± 0.15; as for EEPGTYGVALYRFQALEPNELDFEVGDKIRILATLEDGWLEGSLKGRTGIFPYRFVKLVPDTR, 0.024 ± 0.047.
With EEPGTYGVALDRFQALEPNELDFEVGDKIRILATLEDGWLEGSLKGRTGIFPYRFVKLCPDTR, the abundance fitness is -0.281 ± 0.067.
